# Results reported in IntAct's records for PubMed 10488108.
# B1: E3 ubiquitin-protein ligase CIP8 (Arabidopsis thaliana (Mouse-ear cress)), Q9SPL2 (parent)
# chain: MSDAPSSSPDATASHWCYHCNKRVVVETLDDFVVCCECNKGFVESIQPTPAAYSSPAPPQPLSPDLNVEDSSIGSHFLQMLRLLAHAPSQRSPPRHLDVLSYEDDFFRLELNSRNEIDDDEDEDEDDGDEEEEDEEENLTVNDEEDEEDDLRRRNRFPLTTTQSRTGRNRILDWAEILMGIEDNSIEFRMESDRYAGNPADYIDDAAGYEALLQNLAEGDGGGGGGRRGAPPAAKSAIEALETFEVSSSEGEMVMVCAVCKDGMVMGETGKKLPCGHCYHGDCIVPWLGTRNSCPVCRFQLETDDAEYEEERKKRTSTVSDSAAASSSSSTSRY
# partner: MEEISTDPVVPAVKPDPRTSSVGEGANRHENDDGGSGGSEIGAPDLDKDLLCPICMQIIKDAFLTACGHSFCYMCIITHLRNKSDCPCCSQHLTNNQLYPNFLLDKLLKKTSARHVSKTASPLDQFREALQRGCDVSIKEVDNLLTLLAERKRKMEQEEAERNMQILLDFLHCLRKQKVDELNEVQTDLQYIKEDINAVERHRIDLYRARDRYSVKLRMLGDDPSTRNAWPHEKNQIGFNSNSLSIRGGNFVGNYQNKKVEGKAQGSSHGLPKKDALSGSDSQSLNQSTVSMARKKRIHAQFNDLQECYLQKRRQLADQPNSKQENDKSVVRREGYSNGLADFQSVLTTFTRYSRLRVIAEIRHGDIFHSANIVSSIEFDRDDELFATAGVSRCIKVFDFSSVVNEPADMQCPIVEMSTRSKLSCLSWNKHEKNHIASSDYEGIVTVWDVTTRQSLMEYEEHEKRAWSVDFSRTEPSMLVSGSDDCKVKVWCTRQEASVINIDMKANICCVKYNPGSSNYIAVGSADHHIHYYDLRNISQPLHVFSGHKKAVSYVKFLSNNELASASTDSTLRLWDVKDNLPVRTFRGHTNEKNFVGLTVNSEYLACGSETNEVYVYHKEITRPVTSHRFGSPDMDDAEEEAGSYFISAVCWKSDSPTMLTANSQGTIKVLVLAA
# B2: E3 ubiquitin-protein ligase COP1 (Arabidopsis thaliana (Mouse-ear cress)), P43254 (parent)
# chain: B1 partner
# partner: B1 chain
# Variants of: B1
# Conditions: with cop1_arath COP1, P43254
row,Variant,effect of a mutation on the interaction
1,MSDAPSSSPDATASHWCYHCNKRVVVETLDDFVVCCECNKGFVESIQPTPAAYSSPAPPQPLSPDLNVEDSSIGSHFLQMLRLLAHAPSQRSPPRHLDVLSYEDDFFRLELNSRNEIDDDEDEDEDDGDEEEEDEEENLTVNDEEDEEDDLRRRNRFPLTTTQSRTGRNRILDWAEILMGIEDNSIEFRMESDRYAGNPADYIDDAAGYEALLQNLAEGDGGGGGGRRGAPPAAKSAIEALETFEVSSSEGEMVMVCAVCKDGMVMGETGKKLPAGACYAGDAIVPWLGTRNSCPVCRFQLETDDAEYEEERKKRTSTVSDSAAASSSSSTSRY [C275A;H277A;H280A;C283A],disrupting interaction

# Variants of: B2
# Conditions: with cip8_arath CIP8, Q9SPL2
row,Variant,effect of a mutation on the interaction
1,C67A;H69A;C72A;C75A,disrupting interaction
